In PMC6292502 (Nature structural & molecular biology, 2018):

B1: CEN3 DNA (147 bp CEN3) (dsDNA)
DNA 1: ATCAAATAGTACAAATAAGTCACATGATGATATTTGATTTTATTATATTTTTAAAAAAAGTAAAAAATAAAAAGTAGTTTATTTTTAAAAAATAAAATTTAAAATATTAGTGTATTTGATTTCCGAAAGTTAAAAAAGAAATAGTAAGAAGAT
DNA 2: ATCTTCTTACTATTTCTTTTTTAACTTTCGGAAATCAAATACACTAATATTTTAAATTTTATTTTTTAAAAATAAACTACTTTTTATTTTTTACTTTTTTTAAAAATATAATAAAATCAAATATCATCATGTGACTTATTTGTACTATTTGAT
B2: Ndc10 (natural protein)
chain: MRSSILFLLKLMKIMDVQQQQEAMSSEDRFQELVDSLKPRTAHQYKTYYTKYIQWCQLNQIIPTPEDNSVNSVPYKDLPISAELIHWFLLDTLITDDKPGEKREETEDLDEEEENSFKIATLKKIIGSLNFLSKLCKVHENPNANIDTKYLESVTKLHTHWIDSQKAITTNETNNTNTQVLCPPLLKVSLNLWNPETNHLSEKFFKTCSEKLRFLVDFQLRSYLNLSFEERSKIRFGSLKLGKRDRDAIIYHKVTHSAEKKDTPGHHQLLALLPQDCPFICPQTTLAAYLYLRFYGIPSVSKGDGFPNLNADENGSLLQDIPILRGKSLTTYPREETFSNYYTTVFRYCHLPYKRREYFNKCNLVYPTWDEDTFRTFFNEENHGNWLEQPEAFAFPDKIPFDFKKIMNFKSPYTSYSTNAKKDPFPPPKDLLVQIFPEIDEYKRHDYEGLSQNSRDFLDLMEVLRERFLSNLPWIYKFFPNHDIFQDPIFGNSDFQSYFNDKTIHSKGSPILSFDILPGFNKIYKNKTNFYSLLIERPSQLTFASSHNPDTHPTQKQESEGPLQMSQLDTTQLNELLKQQSFEYVQFQTLSNFQILLSVFNKIFEKLEMKKSSRGYILHQLNLFKITLDERIKKSKIDDADKFIRDNQPIKKEENIVNEDGPNTSRRTKRPKQIRLLSIADSSDESSTEDSNVFKKDGESIEDGAYGENEDENDSEMQEQLKSMINELINSKISTFLRDQMDQFELKINALLDKILEEKVTRIIEQKLGSHTGKFSTLKRPQLYMTEEHNVGFDMEVPKKLRTSGKYAETVKDNDDHQAMSTTASPSPEQDQEAKSYTDEQEFMLDKSIDSIEGIILEWFTPNAKYANQCVHSMNKSGNKSWRANCEALYKERKSIVEFYIYLVNHESLDRYKAVDICEKLRDQNEGSFSRLAKFLRKWRHDHQNSFDGLLVYLSN

What was measured:
Cep3;Ctf13;Skp1;Ndc10 = Cep3;Ctf13;Skp1;Ndc10 (Saccharomyces cerevisiae;Saccharomyces …, UniProt P40969;P35203;P52286;P32504 1-608;1-478;1-194;1-956, |||); assay: cryo-EM
Sequence of Cep3;Ctf13;Skp1;Ndc10 (P40969 whole entry, chain 1 of 3): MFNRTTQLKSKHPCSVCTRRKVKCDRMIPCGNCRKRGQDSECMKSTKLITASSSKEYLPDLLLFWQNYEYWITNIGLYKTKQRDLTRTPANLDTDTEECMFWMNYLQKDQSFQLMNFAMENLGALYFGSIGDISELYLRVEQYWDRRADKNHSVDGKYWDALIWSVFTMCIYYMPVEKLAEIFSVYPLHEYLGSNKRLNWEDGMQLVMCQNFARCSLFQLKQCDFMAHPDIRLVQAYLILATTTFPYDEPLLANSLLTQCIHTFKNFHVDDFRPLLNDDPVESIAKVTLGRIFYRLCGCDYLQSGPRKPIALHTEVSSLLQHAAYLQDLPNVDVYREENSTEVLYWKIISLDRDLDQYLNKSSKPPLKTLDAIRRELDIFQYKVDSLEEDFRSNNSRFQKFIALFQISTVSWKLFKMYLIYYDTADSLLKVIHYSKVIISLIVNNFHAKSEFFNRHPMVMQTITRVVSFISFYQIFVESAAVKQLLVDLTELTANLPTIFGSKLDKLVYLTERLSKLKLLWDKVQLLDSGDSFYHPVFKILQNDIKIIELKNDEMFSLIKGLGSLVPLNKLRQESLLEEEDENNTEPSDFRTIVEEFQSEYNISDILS
Sequence of Cep3;Ctf13;Skp1;Ndc10 (P35203 whole entry, chain 2 of 3): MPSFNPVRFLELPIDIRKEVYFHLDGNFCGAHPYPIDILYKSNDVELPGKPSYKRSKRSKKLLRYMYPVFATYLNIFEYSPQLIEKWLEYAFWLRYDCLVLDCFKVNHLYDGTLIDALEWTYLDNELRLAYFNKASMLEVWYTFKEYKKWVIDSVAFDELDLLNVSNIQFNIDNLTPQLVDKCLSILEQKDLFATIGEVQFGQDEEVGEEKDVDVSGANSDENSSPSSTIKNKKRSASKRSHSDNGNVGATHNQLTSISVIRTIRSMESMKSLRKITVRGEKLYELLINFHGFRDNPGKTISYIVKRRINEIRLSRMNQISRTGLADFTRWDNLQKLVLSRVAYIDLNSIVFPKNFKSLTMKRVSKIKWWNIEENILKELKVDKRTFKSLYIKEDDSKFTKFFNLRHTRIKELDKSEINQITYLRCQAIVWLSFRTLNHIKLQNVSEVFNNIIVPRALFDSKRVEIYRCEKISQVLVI
Sequence of Cep3;Ctf13;Skp1;Ndc10 (P52286 whole entry, chain 3 of 3): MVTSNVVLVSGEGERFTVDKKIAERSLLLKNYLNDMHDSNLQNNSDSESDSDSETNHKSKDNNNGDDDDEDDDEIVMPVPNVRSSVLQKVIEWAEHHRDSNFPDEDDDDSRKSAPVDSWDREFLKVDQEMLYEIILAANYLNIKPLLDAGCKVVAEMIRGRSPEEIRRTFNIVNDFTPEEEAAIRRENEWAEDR

cryo-EM structure = target: the molecule itself; assay: cryo-EM structure

| Binder | binding result (Cep3;Ctf13;Skp1;Ndc10) | binding result (cryo-EM structure) |
| --- | --- | --- |
| B1 | binds | – |
| B2 | – | binds |
